Data as given in PMC4424056 (Nature structural & molecular biology, 2015).
Changes are numbered by the printed parent chain. In names and notes the source's numbering stands.

T1: filamin A immunoglobulin repeat 21 (FLNa-Ig21) (human, UniProt P21333 2236-2330)
T1 sequence: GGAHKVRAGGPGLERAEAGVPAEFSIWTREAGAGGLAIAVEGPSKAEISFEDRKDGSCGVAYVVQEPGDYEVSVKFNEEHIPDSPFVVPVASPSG

T2: FLNa-Ig21 E2276A (human, UniProt P21333 2236-2330, E2276A)
T2 sequence: T1 sequence with E41A

T3: FLNa-Ig21 pre-saturated β3-CT (human, UniProt P21333 2236-2330; P05106 742-788)
T3 sequence 1: T1 sequence
T3 sequence 2: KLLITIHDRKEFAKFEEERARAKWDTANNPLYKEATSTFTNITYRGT

T4: GST-FLNa-Ig21-β3 CT chimera (human, UniProt P05106 742-788; P21333 2236-2330)
T4 chain: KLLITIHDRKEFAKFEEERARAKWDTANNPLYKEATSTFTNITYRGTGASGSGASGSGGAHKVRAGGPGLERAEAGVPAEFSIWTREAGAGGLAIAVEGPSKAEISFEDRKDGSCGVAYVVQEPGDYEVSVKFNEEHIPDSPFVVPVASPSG

T5: FLNa-Ig21 A2268K (human, UniProt P21333 2236-2330, A2268K)
T5 sequence: T1 sequence with A33K

T6: β3 transmembrane-cytoplasmic domain (β3 TMCD, K689-T762) (human, UniProt P05106 715-788)
T6 sequence (looked up): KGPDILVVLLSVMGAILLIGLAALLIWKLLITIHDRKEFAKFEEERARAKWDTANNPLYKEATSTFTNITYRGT

B1: integrin β3 cytoplasmic tail (β3 CT, K716-T762) (domain or fragment, human, UniProt P05106 742-788, looked up)
chain: T3 sequence 2
B2: β3-CT L717K-L718K mutant (domain or fragment, human, UniProt P05106 742-788, looked up)
chain: T3 sequence 2 with L2K, L3K
B3: integrin αIIb cytoplasmic tail (αIIb CT, W988-E1008) (peptide, UniProt P08514 1019-1039, looked up)
chain: WKVGFFKRNRPPLEEDDEEGE
B4: FLNa-Ig21-β3-CT chimera (other, human)
chain: T4 chain
B5: αIIb transmembrane-cytoplasmic domain (αIIb TMCD, E960-E1008) (domain or fragment)
chain: not shown

Columns and labels:
[1] = biological target: T1, filamin A immunoglobulin repeat 21 …; experiment: NMR titration
FLNa-Ig21 E2276A = biological target: T2, FLNa-Ig21 E2276A; experiment: NMR titration
[2] = biological target: T1, filamin A immunoglobulin repeat 21 …; experiment: SPR
[3] = biological target: B1
[4] = biological target: T3, FLNa-Ig21 pre-saturated β3-CT; experiment: SPR
[5] = biological target: T4, GST-FLNa-Ig21-β3 CT chimera; experiment: pull-down
FLNa-Ig21 A2268K = biological target: T5, FLNa-Ig21 A2268K; experiment: NMR titration
β3-CT L717K-L718K mutant = biological target: B2; experiment: NMR structure
[6] = biological target: B1; experiment: NMR titration
[7] = biological target: B3; experiment: SPR
[8] = biological target: T6, β3 transmembrane-cytoplasmic domain (β3 …); experiment: NMR titration

B1: binds [1]; binds (FLNa-Ig21 E2276A).

For KLLITIHDRKEFAKFEEERARAKW (peptide, UniProt P05106 742-765, looked up) [integrin β3 membrane-proximal fragment β3-N (K716-W739)], the Kd [2] was roughly 223 µM.

B2: binds [1].

For B3, the Kd [3] was roughly 368 µM, the binding result [4] was “binds” and the binding result [5] was “binds”. B3: binds (FLNa-Ig21 A2268K); binds (β3-CT L717K-L718K mutant).

WKVGFFERNEPPLEEDDEEGE (peptide, UniProt P08514 1019-1039, looked up) [αIIb CT K994E-R997E mutant]: binds [6].

Binder B4 has a Kd [7] of roughly 19 µM.

B5: binds [8].
